Laboratory results: patent publication US20230078601A1 (CLEVELAND CLINIC FOUNDATION, published 2023)

Columns and labels:
[1] = target: T1, rβ-Casein (mouse, UniProt P10598); test: competitive ELISA: 4D12G1 pre-incubated with rising rβ-casein, then added to plates coated with rhAMHR2-ED
T1 construct: recombinant; also called recombinant mouse β-casein; recombinant β-casein
Method: The specificity of the mAbs was determined by competitive ELISA. Briefly, mAbs were incubated with increasing concentrations of rhAMHR2-ED in liquid phase PBS containing 0.02% Tween-20 (Bio-Rad) for 24 hours at 4° C. The antigen-antibody mixtures were added to the 96-well Maxisorp microtiter plates (Corning Life Sciences, Tewksbury, Mass.) pre-coated with 4 μg/ml rhAMHR2-ED followed by blocking with 1% BSA (Sigma-Aldrich). Recombinant mouse β-casein was used as the specificity control. Wells were then incubated with a secondary anti-mouse IgG conjugated with horseradish peroxidase (HRP; MilliporeSigma, Burlington, Mass.) followed by addition of 2,2′-Azino-bis(3-ethylbenzothiazoline-6-sulfonic acid) diammonium salt (ABTS) substrate (Sigma-Aldrich). Optical density was determined by absorbance at 405 nm.

[2] = target: T2, recombinant extracellular domain of human AMHR2 (rhAMHR2-ED), C-terminal hexahistidine-tagged fusion protein (human, UniProt Q16671 18-149); test: SPR, Biacore 3000, 25 C; 4D12G1 immobilised by amine coupling, rhAMHR2-ED as analyte, Langmuir 1:1 fit
T2 construct: also called human AMHR2-ED
T2 sequence: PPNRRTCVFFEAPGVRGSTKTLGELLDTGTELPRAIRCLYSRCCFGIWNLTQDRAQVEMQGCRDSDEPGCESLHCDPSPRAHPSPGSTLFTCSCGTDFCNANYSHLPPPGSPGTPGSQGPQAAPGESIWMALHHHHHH
Method: Briefly, the 4D12G1 mAb at 300 nM was diluted in sodium acetate at pH 5.0 and covalently immobilized on carboxymethylated dextran over a gold surface using an aqueous solution of N-ethyl-N′-(3-dimethylaminopropyl)carbodiimide (EDC) and N-hydroxysuccinimide (NHS; Sigma-Aldrich). The rhAMHR2-ED receptor analyte at different concentrations (10-1-103 nM) in a running buffer containing 10 mM HEPES at pH 7.4, 150 mM NaCl, 3 mM EDTA, and 0.005% P20 detergent was captured with a […] flow over the immobilized 4D12G1 ligand. Regeneration of flow cells was performed using 10 mM glycine (Sigma-Aldrich) at pH 1.7. All sensorgrams were corrected by subtracting the low signal of the control flow cell and the dissociation curve of the 4D12G1 mAb. The KD values, taking into account affinity and avidity, were calculated using a Langmuir 1:1 fitting model and BIAevaluation 3.2 software (GE Healthcare Bio-Sciences).
An overlapping series of 16-mer peptides spanning the entire 132 amino acid sequence of human AMHR2-ED (FIG. 3A) with moving single amino acid shifts were plated for direct ELISA testing using the 4D12G1 mAb as primary antibody. […]

[3] = target: T3, AMHR2-ED 22-26 5-mer peptide (LGELL) (human); test: SPOT peptide array, 4D12G1 at 1.0 ug/ml, chemiluminescence
T3 construct: Synthesised on a cellulose membrane (SPOT peptide array); also called 22LGELL26; Residues 22-26 of AMHR2-ED and 39-43 of AMHR2
T3 peptide: LGELL
Method: The AMHR2-ED binding sequence of the 4D12G1 mAb and the critical AMHR2-ED residues for such binding were confirmed by SPOT peptide arrays. Peptides spanning the AMHR2-ED 9-40 immunoreactive region and ranging from 4-16-mers in length were synthesized >90% pure on cellulose membranes (JPT Peptide Technologies, Berlin, Germany), treated overnight with blocking buffer (Thermo Fisher), followed by treatment with the 4D12G1 mAb at 1.0 μg/ml for 3 hours at room temperature, followed by three washes with PBS containing 0.01% Tween-20 (Bio-Rad). The membranes were then treated with a 1:10,000 dilution of an HRP-conjugated rabbit anti-mouse IgG (MilliporeSigma) followed by three washes with PBS containing 0.01% Tween-20 (Bio-Rad). Bound antibody was detected using the HyGLO chemiluminescence system (Thomas Scientific).
An overlapping series of 16-mer peptides spanning the entire 132 amino acid sequence of human AMHR2-ED (FIG. 3A) with moving single amino acid shifts were plated for direct ELISA testing using the 4D12G1 mAb as primary antibody. […] To determine amino acids recognized by the 4D12G1 mAb, an overlapping series of peptides spanning the immunoreactive sequence comprising AMHR2-ED 13-30 were synthesized with alanine substitutions at each N-terminal residue or with glycine substitutions for any native N-terminal alanine. […] Bound antibody was detected by chemiluminescence.

T1 sequence (P10598 16-231 limits assumed): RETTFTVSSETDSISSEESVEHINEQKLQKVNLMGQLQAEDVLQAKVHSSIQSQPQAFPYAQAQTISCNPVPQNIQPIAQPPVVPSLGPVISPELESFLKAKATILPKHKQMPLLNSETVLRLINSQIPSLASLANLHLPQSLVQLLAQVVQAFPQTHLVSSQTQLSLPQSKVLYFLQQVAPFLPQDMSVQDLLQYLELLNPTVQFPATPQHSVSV

B1: 4D12G1 mAb (antibody, IgG1, V domains shown)
VH: DVKLVESGGGLVKLGGSLKLSCAASGFTFSRYFMSWVRQTPEKRLELVAAINSDGGRTYYPDTVKGRFTISRDNAKNTLYLQMSSLKSEDTALYYCTRHIYSYYEDYFDYWGQGTTLTVSS
VL: DVVMTQTPLSLPVSLGDQASISCRSSQSLVHSNGNTYLHWYLQKPGQSPKLLIYKVSKRFSGVPDRFSGSGSGTDFTLKISRVEAEDLGVYFCSQSTHVYTFGGGTKLEIK
notes: also called 4D12G1 IgG1 mAb
[1]
  binding result: no binding (tested: 100 µg/ml)
[2]
  Kd: 119 pM
[3]
  binding result: binds
